Measured values from the nanobody polyreactivity screen of Harvey et al. (2022).

Assay: yeast display, Sf9 membrane polyspecificity reagent, FACS + sequencing; frameworks hold sequencing errors
Summary of the method: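 Sorting gates, low and high (top ~1%), were placed on anti-HA fluorescence to track expression and on streptavidin fluorescence to track reagent binding. A clone's polyreactivity label is taken from the gate it came out of. The reagent was 10% biotinylated, detergent-solubilized Sf9 membrane, applied for 1 hour at 4 °C to galactose-induced yeast display cells.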

Sequence	polyreactivity (PSR sort gate)
QVQLVESGGGLVQAGGSLRLSCAAAGLIFRFYAMGWYRQSPGKERELVAAISSRGGSRYYADSVKGRFTISRDNAKNTVYLQMNSLKPEDTAVYYCAAAVRKMAYPHYEYGYWGQGTQVTVSS	high polyreactivity
QVQLVESGGRLVQAGGSLRLSCAASGFIFYSYDMGWYRQAPGKERELVAAIDSRGVNTYYADSVKGRFTISRDNAKNTVYLQMNSLKPEDTAVYYCAAEVVYPVYEYDYWGQGTQVTVSS	low polyreactivity
QVQLVESGGGLVQAGGSLRLSCAASGSIFGAYMGWYRQAPGTEREFVAAINRSGSSTYYADSVKGRFTISRDNAKNTVYLQMNSLKPEDTAVYYCAAKYPGGETYPFDYWGQGTQVTVSS	low polyreactivity
QVQLVESGGGLVQAGGSLRLSCAASGNNFETNAMGWYRQAPGKERELVAAISASGGSTYYADSVKGRFTISRDYAKNTVYLQMNSLKPEDTAVYYCAARRAVRLYYWGQGTQVTVSS	high polyreactivity
QVQLVESGGGLVQAGGSLRLSCAASGSTFTGYAMGWYRQAPGKERELVAAISRSGGSTSYADSVKGRFTISRDNAKNTVYLQMNSLKPEDTAVYYCAAQVQGTTRAKQRGGIGELDYWGQGTQLTVSS	low polyreactivity
QVQLVESGGGLVQAGGSLRLSCAASGRIYLGNVMGWYRQAPGKERELVAAISWSAGSTYYSDSVKGRFTISRDNAKITVYLQMNSLKPEDTAVYYCAAVYLWWSYEFDYWGQGTQVTVSS	low polyreactivity
QVQLGESGGGLVQAGGSLRLSCAASGSTFERYSMGWYRQAPGKERELDAAINWSGGGTYYADSVKGRFTISRDNAKNTVYLQMNSLKPEDTAVYYCAADSGNVVFSLWWYEYYYWGQGTQVTVSS	low polyreactivity
QVQLVESGGGLVQAGGSLRLSCAASGFTFYAYAMGWYRQAPGKERELVAAISKRGGITYYADSVKGRFTISRDNAKNTVYLQMNSLKPEDTAVYYCNADRRRRSGGFAGWHFQRNDYWGQGTLVTVSS	low polyreactivity
QVQLVESGGGLVQAGGSLRLSCAASGSTFDYNAMGWYRQAPGKERELVAAITTVGITYYADSVKGRFTISRDNAKNTVYLQMNSLKPEDTAVYYCAARCVRYGGRYDYWGQGTQVTVSS	high polyreactivity
QVQLVESGGGLVQAGGSLRLSCAASGLNFSEYAMGWYRQAPGKERELVAAIRSDGGSTYYADSVKGRFTISRDNAKNTVYLQMNSLKPEVTAVYYCNAPYRRSAKFRRYVYDYWGQGTQVTVSS	high polyreactivity
QVQLVESGGGLVQAGGSLRLSCAASGNILGYNAMGWYRQAPGKERELVAAISWIGGSTYYADSVKGRFTISRDNAKNTVYLQMNSLKPEDTAVYYCAARYRTYFTYEFWGQGTQVTVSS	low polyreactivity
QVQLVESGGGLVQAGGSLRLSCAASGRIFGAYAMGWYRQAPGKEREWVAVINWRSGGTYYADSVKGRFTISRDNAKNTVYLQMNSLKPVDTAVYYCAADDYGFFSAGDFDYWGHGTQVTVSS	high polyreactivity
QVQLVESGGGLVQAGGSLRLSCAASGRILYWYAMGGYRQAPGKERELVAGIDWSGGSTYYADSVKGRFTISRDNAKNTVYLQMNSLKPEDTAVYYCNAVQNRGRGSHRGESTYYYWGQGTQVTVSS	low polyreactivity
QVQLVESAGGLVQAGVILRLSCPASGSTIEYYAMGWYRQAPGKERELVATISIDGRTNYADSVKGRFTISRDNAKNTVYLQMNSLNPEDTAVYYCAARPYWRHRYDYCGQGTQVTVSS	low polyreactivity
QVQLVESGGGLVQAGGSLRLSCAASGTTFYYYAMGWYRQAPGKEREFVAAIRFSGSRTYYADSVKGRFPISRDNAKNTVYLQMNSLIPEDTAVYYCARATLPSVSYYRKLFDYWGQGTHVTVSS	high polyreactivity
QDQLVESGGGLVQAGGSLRLSCAASGSIFDPYTMGWYRQAPGKERELVAAINWSGGSTSYADSVKGRFTISRDNAKNPVYLQMNSLKPEDTAVYYCNADPHGYYGYGYDYWGQGTQVTVSS	low polyreactivity

Sequence	polyreactivity (PSR sort gate)
QVQLVESGGGLVQAGGSLRLSCAASGFTFYTYVRGWYRQAPGKERELVAAITSGVSTNYADSVKGRFTISRDNAKNTVYLQMNSLKPEDTAVYYCNKDVRPAYRWYDYWGQDTQVTVSS	low polyreactivity
QVQLVESGGGLVQAGGSLRLSCAASGSTFHYYAMGWYRQAPGKERELVAAISQSGSGTYYADSVKGRFTISRDNAKNTVYLLMNSLKPEDTAVYYCAKDITGLSRYRRDYWGQGTQVTVSS	low polyreactivity
QVQLVESGGGLVQAGGSLRLSCAASGRTFVFNAMGWYRQAPGKERELVAAITKNGGSTYYADSVKGRFTISRDNAKNPVYLQMNSLKPEDTAVYYCAGRRGYPFYYWGQGTQVTVSS	low polyreactivity
HFQLVESGGGIVQAGGSLRLSCAASGRTCFYNAMGWYRQAPGKERELVAAISWSGGSTYYADSVKGRFTISRDNAKNPVSLQMNSLNREDTAVYYCNAAYGRRYDYWGQGTQVTVSS	high polyreactivity
QVQLVESGGGLVQAGGSLRLSCAASGSTFWFYAMGWYRQAPGKERELVAAISRSSGSTYYADSVKGRFTISRDNAKNTVYLQMNSLKPEDTAVYYCAKGWSSVPTQYDYWGQGTQVTVSS	low polyreactivity
QVQLVESGGGLVQAGGSLRLSCAASGSIFQVYAMGWYRQAPGKEREFVAAISYSGGGTYYADSVKGRFTISRDNAKNTVFLQMNSLKPEDTAVYYCAADVSGWEYDFWGLGTQVTVSS	low polyreactivity
QVQLVESGGGLVQAGGSLRLSCAASGRIFPYNAMGWYRQAPGKERELVASIRTGGGRTRYADSVKGRFTISRDNAKNTVYLQMNSLKPEDTAVYYCNADSSPRWYHYPTRYDYWGQGTQVTVSS	low polyreactivity
QVQLVESGGGLLQAGGSLRLSCAASGRTFYVYAMGWYRQAPGKEREFVAAIDWGGGTTYYADSVKGRFTISRDNAKNNVYLQMNCLKPEDTAVYYCNAAYTDRFYYWGQGTQVTVSS	high polyreactivity
QVQLVESGGGLVQAGGSLRLSCAASGFIFYYYAMGWYRQAPGKEREFVAGISRSGGSTYYADSVKGRFTISRDNAKNTVYLQMKSLKPEDTAVYYCAARYVQHKIYRLAQGEYWGQGTQVTVSS	high polyreactivity
QVQLVESGGGLVQAGGSLRLSCAASGLTFEDNDMGWYRQAPGKERELVAAISSAGSTSYADSVKGRFTISRDNAKNTVYLQRNSLKPDDTAVYYCAKDNSPSYTPAQLDGGDDYWGQGTQVTVSS	low polyreactivity
QVQLVESGGGLVQAGGSLRLTCAASGSIFWDNAMGWYRQAPGKERALFAAITSSGGSTHYADSVKGRFTISRDNAKNTVYLQMYSLKPEDTAVYYCAARRYYGVYYAFLYWGQGTQVTVSS	high polyreactivity
QVQLVESGGGLVQAGGSLRLSCAASGIIFEGYAMGWYRQAPGKERELVAAISQSGGSTRYADSVKGRFTISRDNAKNTVYLQMNSLKPEDTAVYYCAKEVWNWGPYYYWGQGTQVTVSS	low polyreactivity
QVQLVESGGGLVQAGGSLRLSCAASGFTFYRNAMGWYRQAPGKERELVAAITLSGTSTYYADSVMGRFTISRDNAKNTVYLQMISLIPEDTAVYYWNTVGYRGPSNSRFYYWGQGTQVTLSS	high polyreactivity
QVQLVESGGGLVQAGGSLRLSCAASGRIYTRNTMGWYRQAPGKERELVAAITSRGGSTYYADSVKGRFTISRDNAKNTVYLQMNSLKPEDTAVYYCAADKPRSYYYWGLGTQVTVSS	high polyreactivity
QVQLVESGGGLVQAGGSLRLSCAASGRIFYYNAMGWYRQAPGKERELVATITGSGGSTYYADSVKGRFTISRDNAKNTVYLQMNSLKPEDTAVYYCNATRWYYDFYKLDYWGQGTQVTVSS	low polyreactivity
